The source of these data is patent US20150125454A1 (Daiichi Sankyo, published 2015).

This experiment has as its target human FGFR2 IIIc variant protein (isoform 1: NP-000132) (human, UniProt P21802 22-821). Nature of the experiment: flow cytometry (MFI) on transfected HEK293T cells, hybridoma supernatant; non-binding implied by 'selectively', values only in FIG. 1. As for the experimental part: Each human FGFR expression vector constructed in Examples 1)-3-1 and 2)-1-1 was transfected to HEK293T cells by the method shown in Example 1)-5-1. The cell suspension was centrifuged to remove the supernatant. Then, these various human FGFR expression vector-transfected HEK293T cells and the pcDNA-DEST40-transfected HEK293T cells were separately suspended by the addition of the hybridoma culture supernatant containing the FR2-10, FR2-13, or FR2-14 antibody and left standing at 4° C. for 1 hour. The cells were washed twice with PBS containing 5% FBS, then suspended by the addition of Anti-Rat IgG FITC conjugate (manufactured by Sigma-Aldrich Corp.) diluted 320-fold with PBS containing 5% FBS, and left standing at 4° C. for 1 hour. The cells were washed 3 times with PBS containing 5% FBS and then resuspended in PBS containing 5% FBS and 2 μg/ml 7-aminoactinomycin D (manufactured by Molecular Probes, Inc.), followed by detection using a flow cytometer (FC500; manufactured by Beckman Coulter Inc.). The data was analyzed using Flowjo (manufactured by Tree Star Inc.). After removal of 7-aminoactinomycin D-positive dead cells by gating, the FITC fluorescence intensity of live cells was plotted to a histogram to calculate average fluorescence intensity (MFI).
On the technique in general: A flow cytometer gives signals particle by particle.

Chain of human FGFR2 IIIc variant protein (isoform 1: NP-000132) (P21802 22-821 limits assumed, change not shown): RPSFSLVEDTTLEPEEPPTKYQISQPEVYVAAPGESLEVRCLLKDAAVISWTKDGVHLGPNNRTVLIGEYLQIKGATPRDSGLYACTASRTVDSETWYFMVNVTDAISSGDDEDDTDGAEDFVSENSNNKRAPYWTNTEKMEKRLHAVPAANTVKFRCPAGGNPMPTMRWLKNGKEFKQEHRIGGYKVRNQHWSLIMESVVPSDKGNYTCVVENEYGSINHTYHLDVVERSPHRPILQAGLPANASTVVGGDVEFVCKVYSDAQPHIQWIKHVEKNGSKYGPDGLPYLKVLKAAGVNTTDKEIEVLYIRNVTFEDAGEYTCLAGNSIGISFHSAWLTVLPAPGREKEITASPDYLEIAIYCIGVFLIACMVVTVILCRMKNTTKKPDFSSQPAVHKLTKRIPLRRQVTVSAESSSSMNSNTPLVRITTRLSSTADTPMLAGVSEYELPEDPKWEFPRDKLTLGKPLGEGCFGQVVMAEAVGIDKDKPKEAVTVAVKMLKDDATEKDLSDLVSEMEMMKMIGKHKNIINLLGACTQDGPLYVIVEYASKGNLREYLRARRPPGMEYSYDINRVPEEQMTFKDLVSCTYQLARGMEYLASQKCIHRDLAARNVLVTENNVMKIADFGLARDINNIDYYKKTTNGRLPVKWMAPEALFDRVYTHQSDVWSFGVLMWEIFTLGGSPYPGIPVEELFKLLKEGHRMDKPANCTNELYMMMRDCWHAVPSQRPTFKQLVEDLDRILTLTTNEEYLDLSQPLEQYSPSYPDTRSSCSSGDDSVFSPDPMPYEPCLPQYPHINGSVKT

B1: rat anti-FGFR2 antibody FR2-10 (antibody, IgG2a, V domains shown)
VH: EVQLVESGGGLVQPGRSLKLSCVASGFRFNDFWMTWIRQAPGKGLEWVASITYTGDNTYYAGSVKGRITISRDNAKSTLYLQMNSLRSEDTATYYCTRDDYGGYSPYYMDAWGQGTSVTVSS
VL: DIQMTQSPSSLSAFLGDRVTITCRASQDIGNYLRWFQQKPGKSPRLMIYGATNLANGVPSRFSGSRSGSDYSLTINNLESEDMAIYYCLKHNEYPFTFGSGTKLEIKR
notes: Used as hybridoma culture supernatant in flow cytometry and as antibody purified from ascites elsewhere; also called rat FR2-10 antibody
For B1, the binding result is on record as “no binding”.
